In patent publication US20050191293A1 (Bristol-Myers Squibb, published 2005):
Where “and” joins values, the source holds several entries; their conditions need not be identical. Identical values can stand only once.

T1: rhesus monkey IP-10 (rhesus monkey, UniProt Q8MIZ1 22-98)
T1 sequence: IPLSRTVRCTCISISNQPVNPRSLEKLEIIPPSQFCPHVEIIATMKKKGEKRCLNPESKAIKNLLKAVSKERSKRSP

T2: human MIG (monokine induced by gamma interferon) (human, UniProt Q07325 23-125)
T2 construct: Bought (PeproTech 300-26; R&D Systems for the migration assay)
T2 sequence: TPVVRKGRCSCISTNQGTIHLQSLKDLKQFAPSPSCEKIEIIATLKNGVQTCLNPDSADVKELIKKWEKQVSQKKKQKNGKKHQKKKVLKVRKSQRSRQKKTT

T3: human ITAC (interferon-inducible T cell alpha chemoattractant) (human, UniProt O14625 22-94)
T3 sequence: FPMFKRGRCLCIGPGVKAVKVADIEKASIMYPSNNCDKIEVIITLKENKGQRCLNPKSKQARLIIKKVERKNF

T4: mouse IP-10 (mouse, UniProt P17515 22-98)
T4 construct: Bought (PeproTech 250-16)
T4 sequence: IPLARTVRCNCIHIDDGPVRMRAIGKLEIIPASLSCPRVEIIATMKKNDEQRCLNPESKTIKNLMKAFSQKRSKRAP


Experiments:
[1] = target: T5, human IP-10 (interferon gamma inducible protein 10) (human, UniProt P02778 22-98); experiment: cell-based or functional assay
T5 sequence (P02778 other isoform, or with tags, fused parts or gaps limits assumed): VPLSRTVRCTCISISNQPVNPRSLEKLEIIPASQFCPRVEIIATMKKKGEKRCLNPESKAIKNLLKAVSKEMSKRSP

[2] = target: T5, human IP-10 (interferon gamma inducible …); experiment: cell-based or functional assay; remark: listed apart in the source
rhesus monkey IP-10 [3] = target: T1, rhesus monkey IP-10; experiment: cell-based or functional assay
[4] = target: T5, human IP-10 (interferon gamma inducible …); experiment: ELISA, plate coated with 1 ug/ml antigen
Description: (§1) The plates were washed with PBS/Tween and then incubated with a goat-anti-human IgG Fc polyclonal antibody conjugated with horseradish peroxidase (HRP) for 1 hour at room temperature. After washing, the plates were developed with ABTS substrate (Sigma, A-1888, 0.22 mg/ml) and analyzed by spectrophotometer at OD 415-495.

rhesus monkey IP-10 [5] = target: T1, rhesus monkey IP-10; experiment: ELISA, plate coated with 1 ug/ml antigen
Description: as §1

[6] = target: T2, human MIG (monokine induced by gamma …); experiment: ELISA, plate coated with 1 ug/ml antigen
Description: as §1

[7] = target: T5, human IP-10 (interferon gamma inducible …); experiment: SPR (Biacore), human IP-10 on CM5 chip, 25 C
Description: (§2) Binding was measured by flowing the antibody in HBS EP buffer (provided by Biacore AB) at concentrations from 33-267 nM at a flow rate of 40 μl/min. The antigen-antibody association kinetics was followed for 5 minutes and the dissociation kinetics was followed for 8 minutes. The association and dissociation curves were fit to a 1:1 Langmuir binding model using BIAevaluation software (Biacore AB). Data corresponding to the initial few dozen seconds for association and dissociation phases alone were considered for curve fitting to minimize the effect of avidity. The experiments were performed at both 25° C. and 37° C.

[8] = target: T5, human IP-10 (interferon gamma inducible …); experiment: SPR (Biacore), human IP-10 on CM5 chip, 37 C
Description: as §2

[9] = target: T5, human IP-10 (interferon gamma inducible …); experiment: SPR (Biacore), extension of dissociation curve, 25 C
Description: as §2
(§3) The values were determined by extension of the dissociation curves to get to the time required for the 50% reduction of the Y-axis of the dissociation sensogram.

[10] = target: T5, human IP-10 (interferon gamma inducible …); experiment: SPR (Biacore), extension of dissociation curve, 37 C
Description: as §2, §3

rhesus monkey IP-10 [11] = target: T1, rhesus monkey IP-10; experiment: SPR (Biacore), antigen on CM5 chip, antibody 133 nM, 25 C
Description: (§4) The flow was then stopped and dissociation was monitored for 5 minutes. The association and dissociation curves were fit to a Langmuir binding model using BIAevaluation software (Biacore AB).

[12] = target: T2, human MIG (monokine induced by gamma …); experiment: as above
Description: as §4

[13] = target: T3, human ITAC (interferon-inducible T cell …); experiment: as above
Description: as §4

[14] = target: T5, human IP-10 (interferon gamma inducible …); experiment: inhibition of 0.100 nM 125I-IP-10 binding to CXCR3-expressing 300.19 cells
Description: The cells were grown in RPMI media containing 10% FCS and G418 selection. Prior to use, the cells were washed twice with Hank's Balanced Salt Solution (HBSS) at 4° C. and adjusted to 4×10⁷ cells/ml. Glass fiber plates (Millipore MultiScreen®, Cat. #MAFBNOB50) were blocked with 200 μl of a 0.1% polyethyleneimine solution one day prior to the experiment. On the day of the study, the blocking buffer was aspirated by using a Millipore manifold. The plates were washed three times with 200 μl of binding buffer (50 mM HEPES, pH 7.2, 1 mM CaCl₂, 5 mM MgCl₂, 0.5% BSA). […] The plates were incubated on a plate shaker for 60 minutes at room temperature and washed three times with wash buffer (10 mM HEPES, pH 7.2, 0.5 M NaCl, 0.5% BSA) at a volume of 200 μl per wash. The plates were dried, 25 μl of scintillant was added and the plates were counted on a Wallac Microbeta Counter. Data were analyzed using Prism software and a KD was calculated.
Competition assays were run in a similar manner to the experiment described above. […] Lastly, 25 μl of cells at a density of 1×10⁶ cells per well were added and the plates were incubated on a plate shaker for 60 minutes at room temperature, washed and counted as described above. EC₅₀ values were calculated using Prism software. Kᵢ values (in nM) were determined using the formula: […]

[15] = target: T3, human ITAC (interferon-inducible T cell …); experiment: SPR (Biacore), antigen on CM5 chip, 25 C
Description: as §4

mouse IP-10 [16] = target: T4, mouse IP-10; experiment: SPR (Biacore), antigen on CM5 chip, 25 C
Description: as §4

[17] = target: T5, human IP-10 (interferon gamma inducible …); experiment: cell-based or functional assay; remark: listed apart in the source
[18] = target: T3, human ITAC (interferon-inducible T cell …); experiment: SPR (Biacore), antigen on CM5 chip, 25 C; sample 6A5
Description: as §4

mouse IP-10 [19] = target: T4, mouse IP-10; experiment: as above
Description: as §4

[20] = target: T2, human MIG (monokine induced by gamma …); experiment: SPR (Biacore), antigen on CM5 chip, 25 C; sample 6A5 Batch 2
Description: as §4

IC50 (nM) for 300.19 Cells: inhibition of IP-10-induced calcium flux in 300.19 cells transfected to express CXCR3 [1] [nM]	IC50 (nM) for HPBL: inhibition of IP-10-induced calcium flux in anti-CD3 activated human PBLs that express CXCR3 [1] [nM]	EC50 [4]	EC50 (rhesus monkey IP-10 [5])	EC50 [6] [µg/mL]	Kd [7]	koff [7]	kon [7]	Kd [8]	koff [8]	kon [8]	Half-life (dissociation of half of the antibody-antigen complex) [9]	Half-life (dissociation of half of the antibody-antigen complex) [10]	Kd (rhesus monkey IP-10 [11])	Kd [12] [pM]	Ki [14]	Binder	also measured
0.5	4.4	0.03 µg/mL	0.045 µg/mL	0.02	1780 pM	0.000172 s⁻¹	95000 M⁻¹ s⁻¹	2540 pM	0.000504 s⁻¹	199000 M⁻¹ s⁻¹	1.12 h	0.38 h	2010 pM	15400	300 pM	6B10 human monoclonal antibody (antibody, V domains shown, Human IgG with kappa light chain from a hybridoma of transgenic mice) VH: QVQLVESGGGVVQPGRSLRLSCAASGFTFSNSAMHWVRQAPGKGLEWVALIPFDGYNKYYADSVKGRFTISRDNSKNTLYLQMNSLRAEDTAVYYCAREGGYTGYDGGFDYWGQGILVTVSS VL: EIVLTQSPATLSLSPGERATLSCRASQSVSSYLAWYQQKPGQAPRLLIYDASNRATGIPARFSGSGSGTDFTLTISSLEPEDFAVYYCQQRSNWPPYTFGQGTKLEIK	THP-1 IP-10 IC50: inhibition of migration of CXCR3-expressing 300.19 cells induced by native IP-10 in THP-1 supernatant, MIG blocked by anti-MIG [2]: 0.193 µg/mL; rhIP-10 IC50: inhibition of migration of CXCR3-expressing 300.19 cells induced by 100 ng/ml recombinant human IP-10 [2]: 1.1 µg/mL; rrmIP-10 IC50: inhibition of migration of CXCR3-expressing 300.19 cells induced by 100 ng/ml recombinant rhesus macaque IP-10 (rhesus monkey IP-10 [3]): 0.149 µg/mL; Kd [13]: 51500 pM
0.5	2.98	0.03 µg/mL	0.03 µg/mL	0.045	~198 pM	7.5e-06 s⁻¹	37800 M⁻¹ s⁻¹	340 pM	4.97e-05 s⁻¹	148000 M⁻¹ s⁻¹	25.7 h	3.87 h	260 pM	70100	90 pM	2G1 human monoclonal antibody (antibody, V domains shown, Human IgG with kappa light chain from a hybridoma of transgenic mice) VH: QVQLVESGGGVVQPGRSLRLSCAASGFTFSNCGMHWVRQAPGKGLEWVALIGYDGINEYYADSVKGRFTISRDNSKNTLYLQMNSLRAEDTAVFYCARDWPEGYYNGMDVWGQGTTVTVSS VL: not shown	binding result [15]: no binding (tested: 133 nM); binding result (mouse IP-10 [16]): no binding (tested: 133 nM)
		0.035 µg/mL and 0.062 µg/mL	0.125 µg/mL and 0.09 µg/mL		1200 pM and 960 pM	3.64e-05 s⁻¹ and 3.1e-05 s⁻¹	31100 M⁻¹ s⁻¹ and 32000 M⁻¹ s⁻¹	700 pM and 740 pM	7.15e-05 s⁻¹ and 6.26e-05 s⁻¹	102000 M⁻¹ s⁻¹ and 84100 M⁻¹ s⁻¹	5.29 h and 6.21 h	2.69 h and 3.87 h	1060 pM and 1230 pM		670 pM and 350 pM	6A5 human monoclonal antibody (antibody, V domains shown, Human IgG with kappa light chain from a hybridoma; also called 6A5 Batch 2; 6A5 (Batch 2)) VH: QMQLVESGGGVVQPGRSLRLSCTASGFTFSNNGMHWVRQAPGKGLEWVAVIWFDGMNKFYVDSVKGRFTISRDNSKNTLYLEMNSLRAEDTAIYYCAREGDGSGIYYYYGMDVWGQGTTVTVSS VL: not shown	IC50 (nM) for 300.19 Cells: inhibition of IP-10-induced calcium flux in 300.19 cells transfected to express CXCR3 (sample 6A5) [1]: 0.61 nM; IC50 (nM) for 300.19 Cells: inhibition of IP-10-induced calcium flux in 300.19 cells transfected to express CXCR3 (sample 6A5 Batch 2) [1]: 0.42 nM; IC50 (nM) for HPBL: inhibition of IP-10-induced calcium flux in anti-CD3 activated human PBLs that express CXCR3 (sample 6A5) [1]: 2.85 nM; IC50 (nM) for HPBL: inhibition of IP-10-induced calcium flux in anti-CD3 activated human PBLs that express CXCR3 (sample 6A5 Batch 2) [1]: 2.18 nM; THP-1 IP-10 IC50: inhibition of migration of CXCR3-expressing 300.19 cells induced by native IP-10 in THP-1 supernatant, MIG blocked by anti-MIG (sample 6A5 (Batch 2)) [2]: 0.132 µg/mL; rhIP-10 IC50: inhibition of migration of CXCR3-expressing 300.19 cells induced by 100 ng/ml recombinant human IP-10 (sample 6A5 (Batch 2)) [2]: 0.156 µg/mL; rrmIP-10 IC50: inhibition of migration of CXCR3-expressing 300.19 cells induced by 100 ng/ml recombinant rhesus macaque IP-10 (sample 6A5 (Batch 2)) (rhesus monkey IP-10 [3]): 0.119 µg/mL; Expt. 1 IC50: inhibition of MS-CSF induced migration of CXCR3-expressing 300.19 cells, MIG neutralized by anti-MIG (sample 6A5 (Batch 2)) [17]: 0.1 µg/mL; Expt. 2 IC50: inhibition of MS-CSF induced migration of CXCR3-expressing 300.19 cells, MIG neutralized by anti-MIG (sample 6A5 (Batch 2)) [17]: 0.236 µg/mL; binding result [18]: no binding (tested: 133 nM); binding result (mouse IP-10 [19]): no binding (tested: 133 nM); binding result [20]: no binding (tested: 133 nM)
